{"source": "IntAct's records for PubMed 14594812", "parents": {"B1": {"name": "Phospholipase D alpha 1 (Arabidopsis thaliana (Mouse-ear cress)), Q38882 (parent)", "chain": "MAQHLLHGTLHATIYEVDALHGGGVRQGFLGKILANVEETIGVGKGETQLYATIDLQKARVGRTRKIKNEPKNPKWYESFHIYCAHLASDIIFTVKDDNPIGATLIGRAYIPVDQVINGEEVDQWVEILDNDRNPIQGGSKIHVKLQYFHVEEDRNWNMGIKSAKFPGVPYTFFSQRQGCKVSLYQDAHIPDNFVPRIPLAGGKNYEPQRCWEDIFDAISNAKHLIYITGWSVYAEIALVRDSRRPKPGGDVTIGELLKKKASEGVRVLLLVWDDRTSVDVLKKDGLMATHDEETENFFRGSDVHCILCPRNPDDGGSIVQSLQISTMFTHHQKIVVVDSEMPSRGGSEMRRIVSFVGGIDLCDGRYDTPFHSLFRTLDTVHHDDFHQPNFTGAAITKGGPREPWHDIHSRLEGPIAWDVMYNFEQRWSKQGGKDILVKLRDLSDIIITPSPVMFQEDHDVWNVQLFRSIDGGAAAGFPESPEAAAEAGLVSGKDNIIDRSIQDAYIHAIRRAKDFIYVENQYFLGSSFAWAADGITPEDINALHLIPKELSLKIVSKIEKGEKFRVYVVVPMWPEGLPESGSVQAILDWQRRTMEMMYKDVIQALRAQGLEEDPRNYLTFFCLGNREVKKDGEYEPAEKPDPDTDYMRAQEARRFMIYVHTKMMIVDDEYIIIGSANINQRSMDGARDSEIAMGGYQPHHLSHRQPARGQIHGFRMSLWYEHLGMLDETFLDPSSLECIEKVNRISDKYWDFYSSESLEHDLPGHLLRYPIGVASEGDITELPGFEFFPDTKARILGTKSDYLPPILTT", "partner": "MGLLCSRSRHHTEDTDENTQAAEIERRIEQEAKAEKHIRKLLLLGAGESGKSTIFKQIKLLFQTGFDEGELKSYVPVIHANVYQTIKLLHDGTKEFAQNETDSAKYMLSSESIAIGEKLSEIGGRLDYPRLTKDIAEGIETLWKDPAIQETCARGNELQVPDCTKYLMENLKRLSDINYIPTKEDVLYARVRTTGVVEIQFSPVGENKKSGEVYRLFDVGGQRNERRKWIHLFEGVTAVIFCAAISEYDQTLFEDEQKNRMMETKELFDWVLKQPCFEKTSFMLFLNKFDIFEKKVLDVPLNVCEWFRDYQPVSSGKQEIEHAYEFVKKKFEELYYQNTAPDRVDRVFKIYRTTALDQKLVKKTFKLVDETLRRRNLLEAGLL"}}, "data": [{"variants_of": "B1", "settings": "with gpa1_arath GPA1, P18064", "values": [{"variant": "K564A", "effect of a mutation on the interaction": "disrupting interaction"}, {"variant": "F565A", "effect of a mutation on the interaction": "decreasing interaction"}, {"variant": "E563A", "effect of a mutation on the interaction": "decreasing interaction"}]}, {"variants_of": "B1", "settings": "with gpa1_arath GPA1, P18064", "remark": "another data set of the same source", "values": [{"variant": "K564A", "effect of a mutation on the interaction": "decreasing interaction"}]}]}
